Data taken from US20230416365A1 (Hoffmann-La Roche, published 2023).
Read-outs that look alike come from different tables or passages of the source.

T1: NA(B2)A-avi-His (biotinylated at the avi tag)
T1 chain: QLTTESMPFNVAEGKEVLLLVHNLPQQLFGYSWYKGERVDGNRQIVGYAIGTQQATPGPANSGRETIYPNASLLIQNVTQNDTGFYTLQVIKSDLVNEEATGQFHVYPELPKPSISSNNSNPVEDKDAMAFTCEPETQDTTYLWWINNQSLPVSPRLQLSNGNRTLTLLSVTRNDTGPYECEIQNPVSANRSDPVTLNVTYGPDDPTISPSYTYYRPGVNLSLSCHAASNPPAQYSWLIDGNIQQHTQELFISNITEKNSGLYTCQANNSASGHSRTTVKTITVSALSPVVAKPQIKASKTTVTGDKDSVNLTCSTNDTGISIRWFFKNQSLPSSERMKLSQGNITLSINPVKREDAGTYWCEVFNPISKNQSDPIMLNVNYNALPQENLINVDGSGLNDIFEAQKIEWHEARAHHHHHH

T2: N(A2B2)A-avi-His (biotinylated at the avi tag)
T2 construct: also called biotinylated N(A2B2)A-avi-His
T2 chain: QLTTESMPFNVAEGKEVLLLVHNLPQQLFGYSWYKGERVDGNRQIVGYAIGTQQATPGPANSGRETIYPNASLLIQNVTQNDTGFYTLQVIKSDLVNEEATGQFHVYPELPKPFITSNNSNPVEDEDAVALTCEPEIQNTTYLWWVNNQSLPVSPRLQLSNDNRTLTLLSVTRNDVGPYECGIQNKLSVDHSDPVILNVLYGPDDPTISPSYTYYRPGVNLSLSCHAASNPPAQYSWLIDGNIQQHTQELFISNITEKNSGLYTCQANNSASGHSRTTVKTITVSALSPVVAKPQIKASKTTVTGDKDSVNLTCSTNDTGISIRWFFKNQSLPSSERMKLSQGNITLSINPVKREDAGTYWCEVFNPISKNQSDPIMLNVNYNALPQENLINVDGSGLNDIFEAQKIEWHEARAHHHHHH


Key:
[1] = target: T3, biotinylated huCD28-Fc (dimeric CD28-Fc construct with a monovalent biotinylated avi-tag) (human, UniProt P10747 19-152, biotinylated at the C-terminal avi tag); test: SPR, ProteOn XPR36, huCD28-Fc on NLC chip, bispecific as analyte
T3 construct: not shown: hum IgG1 Fc fragment with hole and PG-LALA mutations; hum IgG1 Fc fragment with knob and PG-LALA mutations

[2] = target: T4, human CD28 on CHO cells (parental cell line CHO-k1 ATCC #CCL-61, modified to stably overexpress human CD28) (human, UniProt P10747 19-220); test: binding to CHO cells expressing human CD28 (by the table's title)
T4 construct: also called hu CD28; CHO-hCD28

[3] = target: T5, human FAP on 3T3-huFAP cells (clone 19) (human, UniProt Q12884 1-760); test: flow cytometry on 3T3-huFAP cells, FAP-CD28 1+1 constructs, MFI (PE)
[4] = target: T5, human FAP on 3T3-huFAP cells (clone 19); test: as above; remark: listed apart in the source
NA(B2)A-avi-His = target: T1, NA(B2)A-avi-His; test: SPR, ProteOn, 2000 RU NA(B2)A-avi-His on NLC chip, Fab in bacterial supernatant
N(A2B2)A-avi-His [5] = target: T2, N(A2B2)A-avi-His; test: SPR, ProteOn, antigen on NLC chip, purified Fab as analyte
N(A2B2)A-avi-His [6] = target: T2, N(A2B2)A-avi-His; test: SPR off-rate, ProteOn, antigen on NLC chip, Fab in bacterial supernatant

Kd [1] [pM]	koff [1] [s⁻¹]	kon [1] [M⁻¹ s⁻¹]	Kd [2] [pM]	binding result [3]	binding result [4]	binding result (NA(B2)A-avi-His)	Kd (N(A2B2)A-avi-His [5]) [pM]	koff (N(A2B2)A-avi-His [5]) [s⁻¹]	kon (N(A2B2)A-avi-His [5]) [M⁻¹ s⁻¹]	koff (N(A2B2)A-avi-His [6]) [s⁻¹]	Binder
–	–	–	–	–	–	no binding	250	5.78e-05	225000	7.41e-05	P006.038 Fab (Fab, V domains shown, Fab from E. coli) VH: EVQLLESGGGLVQPGGSLRLSCAASGFTFTDYYMNWVRQAPGKGLEWLGFIGNKANAYTTEYSASVKGRFTISRDKSKNTLYLQMNSLRAEDTATYYCTRDRGIRFGFDYWGQGTTVTVSS VL: EIVLTQSPATLSLSPGERATLSCRASSSVTYIHWYQQKPGQAPRSWIYATSNLASGIPARFSGSGSGTDFTLTISSLEPEDFAVYYCQHWSSVPPTFGQGTKLEIK
–	–	–	–	–	–	no binding	290	3.92e-05	134000	4.24e-05	P005.102 Fab (Fab, V domains shown, Fab from E. coli) VH: EVQLLESGGGLVQPGGSLRLSCAASGFTFTDYYMNWVRQAPGKGLEWLGFIGNKANAYTTEYSASVKGRFTISRDKSKNTLYLQMNSLRAEDTATYYCTRDRGIRFQFDYWGQGTTVTVSS VL: EIVLTQSPATLSLSPGERATLSCRASSSVTYIHWYQQKPGQAPRSWIYATSNLASGIPARFSGSGSGTDFTLTISSLEPEDFAVYYCQHWSSKSPTFGQGTKLEIK
–	–	–	–	–	–	no binding	910	8.54e-05	94000	8.87e-05	P005.097 Fab (Fab, V domains shown, Fab from E. coli) VH: EVQLLESGGGLVQPGGSLRLSCAASGFTFTDYYMNWVRQAPGKGLEWLGFIGNKANAYTTEYSASVKGRFTISRDKSKNTLYLQMNSLRAEDTATYYCTRDRGLRFSFDYWGQGTTVTVSS VL: EIVLTQSPATLSLSPGERATLSCRASSSVTYIHWYQQKPGQAPRSWIYATSNLASGIPARFSGSGSGTDFTLTISSLEPEDFAVYYCQHWSSQPPTFGQGTKLEIK
–	–	–	–	–	–	no binding	500	4.99e-05	100000	5.37e-05	P005.103 Fab (Fab, V domains shown, Fab from E. coli) VH: EVQLLESGGGLVQPGGSLRLSCAASGFTFTDYYMNWVRQAPGKGLEWLGFIGNKANAYTTEYSASVKGRFTISRDKSKNTLYLQMNSLRAEDTATYYCTRDRGIRFYFDYWGQGTTVTVSS VL: EIVLTQSPATLSLSPGERATLSCRASSSVTYIHWYQQKPGQAPRSWIYATSNLASGIPARFSGSGSGTDFTLTISSLEPEDFAVYYCQHWSSISPTFGQGTKLEIK
–	–	–	–	–	–	no binding	630	6.53e-05	105000	6.47e-05	P002.139 Fab (Fab, V domains shown, Fab from E. coli) VH: EVQLLESGGGLVQPGGSLRLSCAASGFYFTDYAMNWVRQAPGKGLEWLGVISNKANAYTTEYSASVKGRFTISRDKSKNTLYLQMNSLRAEDTATYYCTRDRGLRFYFDYWGQGTTVTVSS VL: EIVLTQSPATLSLSPGERATLSCHASSSVTYIHWYQQKPGQAPRSWIYATSNLASGIPARFSGSGSGTDFTLTISSLEPEDFAVYYCQHWSSKPPTFGQGTKLEIK

The remaining lines, values behind:

Binder	Kd [1] [pM]	koff [1] [s⁻¹]	kon [1] [M⁻¹ s⁻¹]	Kd [2] [pM]	binding result [3]	binding result [4]	binding result (NA(B2)A-avi-His)	Kd (N(A2B2)A-avi-His [5]) [pM]	koff (N(A2B2)A-avi-His [5]) [s⁻¹]	kon (N(A2B2)A-avi-His [5]) [M⁻¹ s⁻¹]	koff (N(A2B2)A-avi-His [6]) [s⁻¹]
FAP (4B9) - CD28 (CD28(SA)_Variant 19) 1+1 (bispecific antibody, human IgG1, kappa, L234A L235A, huIgG1 PG-LALA CrossFab 1+1; also called P1AE3137) heavy 1: EIVLTQSPGTLSLSPGERATLSCRASQSVTSSYLAWYQQKPGQAPRLLINVGSRRATGIPDRFSGSGSGTDFTLTISRLEPEDFAVYYCQQGIMLPPTFGQGTKVEIKSSASTKGPSVFPLAPSSKSTSGGTAALGCLVKDYFPEPVTVSWNSGALTSGVHTFPAVLQSSGLYSLSSVVTVPSSSLGTQTYICNVNHKPSNTKVDKKVEPKSCDKTHTCPPCPAPEAAGGPSVFLFPPKPKDTLMISRTPEVTCVVVDVSHEDPEVKFNWYVDGVEVHNAKTKPREEQYNSTYRVVSVLTVLHQDWLNGKEYKCKVSNKALGAPIEKTISKAKGQPREPQVCTLPPSRDELTKNQVSLSCAVKGFYPSDIAVEWESNGQPENNYKTTPPVLDSDGSFFLVSKLTVDKSRWQQGNVFSCSVMHEALHNHYTQKSLSLSP light 1: EVQLLESGGGLVQPGGSLRLSCAASGFTFSSYAMSWVRQAPGKGLEWVSAIIGSGASTYYADSVKGRFTISRDNSKNTLYLQMNSLRAEDTAVYYCAKGWFGGFNYWGQGTLVTVSSASVAAPSVFIFPPSDEQLKSGTASVVCLLNNFYPREAKVQWKVDNALQSGNSQESVTEQDSKDSTYSLSSTLTLSKADYEKHKVYACEVTHQGLSSPVTKSFNRGEC heavy 2: not shown light 2: not shown	1100	0.000304	280000	1100	binds	–	–	–	–	–	–
FAP (4B9) - CD28 (CD28(SA)_Variant 12) 1+1 (bispecific antibody, human IgG1, kappa, L234A L235A, huIgG1 PG-LALA CrossFab 1+1; also called P1AE3133) heavy 1: EIVLTQSPGTLSLSPGERATLSCRASQSVTSSYLAWYQQKPGQAPRLLINVGSRRATGIPDRFSGSGSGTDFTLTISRLEPEDFAVYYCQQGIMLPPTFGQGTKVEIKSSASTKGPSVFPLAPSSKSTSGGTAALGCLVKDYFPEPVTVSWNSGALTSGVHTFPAVLQSSGLYSLSSVVTVPSSSLGTQTYICNVNHKPSNTKVDKKVEPKSCDKTHTCPPCPAPEAAGGPSVFLFPPKPKDTLMISRTPEVTCVVVDVSHEDPEVKFNWYVDGVEVHNAKTKPREEQYNSTYRVVSVLTVLHQDWLNGKEYKCKVSNKALGAPIEKTISKAKGQPREPQVCTLPPSRDELTKNQVSLSCAVKGFYPSDIAVEWESNGQPENNYKTTPPVLDSDGSFFLVSKLTVDKSRWQQGNVFSCSVMHEALHNHYTQKSLSLSP light 1: EVQLLESGGGLVQPGGSLRLSCAASGFTFSSYAMSWVRQAPGKGLEWVSAIIGSGASTYYADSVKGRFTISRDNSKNTLYLQMNSLRAEDTAVYYCAKGWFGGFNYWGQGTLVTVSSASVAAPSVFIFPPSDEQLKSGTASVVCLLNNFYPREAKVQWKVDNALQSGNSQESVTEQDSKDSTYSLSSTLTLSKADYEKHKVYACEVTHQGLSSPVTKSFNRGEC heavy 2: not shown light 2: DIQMTQSPSSLSASVGDRVTITCRASQNIYVWLNWYQQKPGKAPKLLIYKASNLYSGVPSRFSGSRSGTDFTLTISSLQPEDFATYYCQQGQTYPYTFGQGTKLEIKRTVAAPSVFIFPPSDRKLKSGTASVVCLLNNFYPREAKVQWKVDNALQSGNSQESVTEQDSKDSTYSLSSTLTLSKADYEKHKVYACEVTHQGLSSPVTKSFNRGEC	1000	0.000267	261000	1000	–	binds	–	–	–	–	–
FAP (4B9) - CD28 (CD28(SA)_Variant 23) 1+1 (bispecific antibody, human IgG1, kappa, L234A L235A, huIgG1 PG-LALA CrossFab 1+1; also called P1AE3138) heavy 1: EIVLTQSPGTLSLSPGERATLSCRASQSVTSSYLAWYQQKPGQAPRLLINVGSRRATGIPDRFSGSGSGTDFTLTISRLEPEDFAVYYCQQGIMLPPTFGQGTKVEIKSSASTKGPSVFPLAPSSKSTSGGTAALGCLVKDYFPEPVTVSWNSGALTSGVHTFPAVLQSSGLYSLSSVVTVPSSSLGTQTYICNVNHKPSNTKVDKKVEPKSCDKTHTCPPCPAPEAAGGPSVFLFPPKPKDTLMISRTPEVTCVVVDVSHEDPEVKFNWYVDGVEVHNAKTKPREEQYNSTYRVVSVLTVLHQDWLNGKEYKCKVSNKALGAPIEKTISKAKGQPREPQVCTLPPSRDELTKNQVSLSCAVKGFYPSDIAVEWESNGQPENNYKTTPPVLDSDGSFFLVSKLTVDKSRWQQGNVFSCSVMHEALHNHYTQKSLSLSP light 1: EVQLLESGGGLVQPGGSLRLSCAASGFTFSSYAMSWVRQAPGKGLEWVSAIIGSGASTYYADSVKGRFTISRDNSKNTLYLQMNSLRAEDTAVYYCAKGWFGGFNYWGQGTLVTVSSASVAAPSVFIFPPSDEQLKSGTASVVCLLNNFYPREAKVQWKVDNALQSGNSQESVTEQDSKDSTYSLSSTLTLSKADYEKHKVYACEVTHQGLSSPVTKSFNRGEC heavy 2: not shown light 2: not shown	16300	0.00342	211000	16300	binds	–	–	–	–	–	–
P001.177 Fab (Fab, V domains shown, Fab from E. coli) VH: EVQLLESGGGLVQPGGSLRLSCAASGFYFTDYYMNWVRQAPGKGLEWLGFISNKANAYTTEYSASVKGRFTISRDKSKNTLYLQMNSLRAEDTATYYCTRDRGLRFYFDYWGQGTTVTVSS VL: EIVLTQSPATLSLSPGERATLSCRASSSVTYIHWYQQKPGQAPRSWIYATSNLASGIPARFSGSGSGTDFTLTISSLEPEDFAVYYCQHWSSKPPTFGQGTKLEIK	–	–	–	–	–	–	no binding	290	7.85e-05	267000	9.81e-05
